For six molecules, EC50 and IC50 results are on record in patent US20170267762A1 (APOLLOMICS, published 2017).

B1: chimeric 7A4-hIgG1 (antibody)
heavy: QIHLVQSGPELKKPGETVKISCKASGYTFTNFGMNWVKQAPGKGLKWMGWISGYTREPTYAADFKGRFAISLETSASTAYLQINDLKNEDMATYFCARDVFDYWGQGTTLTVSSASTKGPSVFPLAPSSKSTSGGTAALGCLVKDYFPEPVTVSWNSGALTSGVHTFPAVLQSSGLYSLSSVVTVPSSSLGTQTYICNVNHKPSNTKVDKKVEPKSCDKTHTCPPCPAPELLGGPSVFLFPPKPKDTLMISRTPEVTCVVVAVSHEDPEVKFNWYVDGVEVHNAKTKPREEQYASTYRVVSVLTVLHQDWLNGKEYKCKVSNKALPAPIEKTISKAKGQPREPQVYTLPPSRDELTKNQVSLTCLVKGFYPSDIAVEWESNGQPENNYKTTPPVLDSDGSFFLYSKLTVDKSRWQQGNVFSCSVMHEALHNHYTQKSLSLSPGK
light: DIVLTQSPASLAVSLGQRATISCRASESVDNYGYSFMNWFQQKPGQPPKLLIYRASNLESGIPARFSGSGSRTNFTLTINPVEADDVATYFCQQSNADPTFGGGTNLEIKRTVAAPSVFIFPPSDEQLKSGTASVVCLLNNFYPREAKVQWKVDNALQSGNSQESVTEQDSKDSTYSLSSTLTLSKADYEKHKVYACEVTHQGLSSPVTKSFNRGEC
notes: Full chimeric chains; also called 7A4-chimeric-IgG1
B2: chimeric 15H5-hIgG4 (antibody, V domains shown)
VH: EVKLVESGGGLVKPGGSLKLSCAASGFAFRSYDMSWVRQTPEKILEWVATISGGGSYTYYQDSVKGRFTISRDNARNTLYLQMSSLRSEDTALYYCASPYGPYFDYWGQGTTLTVSS
VL: DIQMNQSPSSLSASLGDTITITCHASQSINVWLSWYQQKPGNIPKLLIYRASNLHTGVPSRFSGSGSGTGFTLTISSLQPDDIATYYCQQGQSYPWTFGGGTKLEIKR
notes: Mouse variable regions with human IgG4 constant region
B3: chimeric 4C10-hIgG4 (antibody, V domains shown)
VH: QVQLKQSGPGLVQPSQNLSVTCTVSGFSLTTYGVHWVRQSPGKGLEWLGVIWSGGSTDYNAAFISRLTISKDNARSQVFFKMNSLQVNDTAMYYCAREKSVYGNYVGAMDYWGQGTSVTVSS
VL: SIVMTQTPKFLLVSAGDRVTITCKASQSVSDDVAWYQQKPGQSPKLLIYYAFNRYTGVPDRFTGSGYGTDFTFTISTVQSEDLAVYFCQQDYRSPWTFGGGTKLEIKR
notes: as for B2
B4: chimeric 14A6-hIgG4 (antibody, V domains shown)
VH: DVQLQESGPGLVKPSQSLSLTCTVTGYSITSDYAWNWIRQFPGNQLEWMAYISYSGYTSYNPSLKSRISITRDTSRNQFFLQLNSVTTEDTATYYCARSLDYDYGTMDYWGQGTSVTVSS
VL: QIVLSQSPAILSASPGEKVTMTCRANSSVSSMHWYQQKPGSSPEPWIYAISNLAFGVPARFSGSGSGTSYSLTISRVEAEDAATYFCQQWNSRPPTFGGGTKLEIKR
notes: as for B2
B5: chimeric 22A5-hIgG4 (antibody, V domains shown)
VH: EVKLVESGGGLVKPGGSLKLSCSASGFSFSYYDMSWVRQTPEKGLEWVATISGGGRNTYFIDSVKGRFTISRDNVKNNLYLLMSSLRSEDTALYYCASPYEGAVDFWGQGTSVTVSS
VL: DIVMTQSHKVMSTSVGDRVSITCKASQDVDNAVAWYQQNPGQSPKLLIKWASTRHHGVPDRFTGSGSGTDFTLTISTVQSEDLADFFCQQYSTFPYTFGGGTKLEIKR
notes: as for B2
B6: chimeric 10D1-hIgG4 (antibody, V domains shown)
VH: EVKLVESGGGLVKPGGSLKLSCAASGFTFSSYGMSWLRQTPEKRLEWVATMSGGGRDIYYPDSMKGRFTISRDNAKNNLYLQMSSLRSEDTALYYCARQYYDDWFAYWGQGTLVTVSA
VL: DIVLTQTPATLSVTPGDSVSLSCRASQSISNNLHWYQQKSHESPRLLIKYASQSISGIPSRFSGSGSGTDFTLNINSVETEDFGMYFCQQSNSWPLTFGAGTKLELKR
notes: as for B2

The target of one assay is T1, human PD-1 extracellular domain fused with human Fc tag (hPD-1-hFc) (human).
T1 construct: also called human PD-1-hFc
T1 sequence (chain, as listed by the source limits assumed): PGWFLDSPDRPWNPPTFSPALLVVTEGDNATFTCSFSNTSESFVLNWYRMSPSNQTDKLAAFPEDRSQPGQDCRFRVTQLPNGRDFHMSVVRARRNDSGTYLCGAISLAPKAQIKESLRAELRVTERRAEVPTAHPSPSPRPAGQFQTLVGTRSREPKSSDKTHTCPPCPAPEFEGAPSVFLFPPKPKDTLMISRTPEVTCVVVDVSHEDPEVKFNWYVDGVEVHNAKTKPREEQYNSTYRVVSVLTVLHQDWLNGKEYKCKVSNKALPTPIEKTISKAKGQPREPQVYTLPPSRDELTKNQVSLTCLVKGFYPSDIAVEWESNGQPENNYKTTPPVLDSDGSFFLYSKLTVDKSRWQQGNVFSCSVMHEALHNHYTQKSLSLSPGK
Briefly: ELISA binding to plate-bound PD-1, OD450 (methods similar to Example 2: plate coated with PD1-hFc). How it is done:
(§1) ELISA binding analysis was conducted based on human PD-1-hFc Protein. 96-well plates (Costar, Cat No:9018) were coated with 100 μL of 2 μg/ml PD1-hFc (CrownBio) in coating buffer (PBS, Hyclone, Cat No:SH30256.01B) overnight at 4° C. The wells were aspirated and non-specific binding sites were blocked by adding 200 μL of blocking buffer with 1% (w/v) of bovine serum albumin (BSA, Roche, Cat No: 738328) and incubating for 1 hour at 37° C. After the plates are washed three times with wash buffer (PBS with 0.05%(v/v) Tween20 (Sigma, Cat No:P1379), 100 μL/well of a suitable dilutions of hybridoma supernatant in blocking buffer were added and incubated at room temperature for 1 hour. The plates were washed and incubated with 100 μL/well of Goat anti-Mouse IgG (H+L) (Thermo, Cat No: 31432) in blocking buffer for 60 min. After the plates were washed, 100 μL/well of substrate solution (TMB(eBioscience, Cat No:00-4201-56) was added and the plates were incubated for 2min at room temperature. 100 μL/well of stop solution (2N H2SO4) was added to stop the reaction. The colorimetric signals were developed and read at 450 nm using a Auto Plate SpectraMax Plus (Supplier: Molecular Devices; Model: MNR0643; Software: SoftMax Pro v5.4).
(In general: An ELISA detects its analyte on a solid surface through an enzyme-linked reagent.)
With B1, it took 0.0128 µg/mL to reach a half-maximal effect (EC50).

The target in a further assay is T2, human PD-1 extracellular domain fused with mouse Fc (PD-1-mFc) (human, UniProt Q15116 25-170).
T2 construct: extracellular domain; not used because of the label; also called hPD-1-mFc; human PD-1-mouse Fc fusion protein
T2 sequence (Q15116 25-170): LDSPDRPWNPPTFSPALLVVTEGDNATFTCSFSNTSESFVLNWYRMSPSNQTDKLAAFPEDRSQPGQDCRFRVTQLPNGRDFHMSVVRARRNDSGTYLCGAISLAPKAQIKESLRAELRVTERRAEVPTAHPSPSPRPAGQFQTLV
As to the kind of experiment: ELISA ligand blockage: biotinylated PD-L1-mFc binding to plate-bound PD-1, OD450 (methods similar to Example 2: PD-1-mFc coated). How it is done:
(§2) PD-1-mFc antigen (CrownBio) was suspended in PBS (Hyclone,Cat No:SH30256.01B) buffer (2 ug/ml, 100 ul/ well) and coated on the 96 well plate (costar, Cat No.:9018) 4° C. overnight. Plates were washed 3 times using washing buffer: PBS+0.05% Tween 20(Sigma, Cat No.:P1379). 200 ul of blocking buffer (PBS+1%BSA(Roche, Cat No.:738328)), was added to each well, incubated at 37° C. for 1 hour, and washed 3 times. Various concentrations (suitable dilutions of hybridoma supernatant in PBS) of the anti-PD-1 Abs were added to the wells (100 μl/well) and incubated at 37° C. for 1 hour. […] Secondary antibody (Avidin HRP eBioscience cat No.:E07418-1632, 1:500, 100 ul/well) was added, incubated at 37 ° C. for 0.5 hour, and washed 3 times. TMB (Sigma, Cat No.: T0440, 100 ul/well) was added, and incubated for 3 min at RT. To stop the reaction, 2N H2SO4 (100 ul/well), was added. The colorimetric signals were developed and read at 450 nm using a Auto Plate SpectraMax Plus (Supplier: Molecular Devices; Model: MNR0643; Software: SoftMax Pro v5.4).
For B1, the IC50 (as a rule, the concentration at which inhibition is half-maximal) came to 0.356 µg/mL.

For the next assay, the target named is T3, human PD-1 on cells (293T cells transfected with human PD-1) (human, UniProt Q15116 25-288).
T3 construct: whole, on cells; Also used as the target for the functional rows, where PD-1 stands on human T cells
T3 sequence (Q15116 25-288): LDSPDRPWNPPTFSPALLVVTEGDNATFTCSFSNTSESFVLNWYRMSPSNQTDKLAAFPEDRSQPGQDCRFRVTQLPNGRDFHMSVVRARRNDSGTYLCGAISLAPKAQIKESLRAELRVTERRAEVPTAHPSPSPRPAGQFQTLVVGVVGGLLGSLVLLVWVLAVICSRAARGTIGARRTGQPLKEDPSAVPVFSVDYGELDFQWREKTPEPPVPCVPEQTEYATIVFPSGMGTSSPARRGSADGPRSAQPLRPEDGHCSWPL
As to the kind of experiment: FACS binding to 293T cells expressing human PD-1, MFI. The procedure: (§3) The cells were incubated with the indicated antibody (20 ug/ml with the dilution of ⅕) at 4° C. for 1 h. Cells were washed three times with FACS buffer. A secondary antibody (PE Goat anti-mouse: 1:200; PE mouse anti-human: 1:10) was added to the cells at 100 ul/well, and incubated at 4° C. for 40min. Cells were washed three times with FACS buffer and analyzed by FACS Array.
Background: A flow cytometer gives signals particle by particle.
Regarding B1, a half-maximal effect (EC50) was put at 0.0337 µg/mL.

Another assay concerns the target T2, human PD-1 extracellular domain fused …. As to the kind of experiment: blockage ELISA, coated PD-1-mFc, competitor PDL-1-mFc-biotin. The procedure: as §2
(§4) Freestyle 293 cells (200 mL at 10⁶/mL) were transfected with 100 μg of each of the chimeric heavy and light chain expression plasmids and cultured for 6 days. The chimeric antibody in the supernatant was then purified with Protein-G column (GE healthcare).
For the molecule B2, the IC50 was 1.37 µg/mL.
B3 had an IC50 of 0.978 µg/mL.
Turning to B4, the IC50 was determined as 0.823 µg/mL.
Still for that read-out and setting: to B5 belongs 1.01 µg/mL; to B6, 1.03 µg/mL.

For a further assay, the target named is T3, human PD-1 on cells (293T cells …). As to the kind of experiment: FACS blockage on hPD-1-293T cells, competitor biotin PD-L1. How it is done:
Various concentrations of the testing hybridoma antibodies were added to the cell suspension and incubated at 4° C. for 60 minutes in 96 well plates. […] Plates were washed 3 times, and mouse anti-biotin PE antibody (Biolgend, cat# 409004) was added. Flow cytometric analyses were performed using a FACS Array.
as §4
B2 yielded an IC50 of 0.101 µg/mL.
Turning to B3, the IC50 worked out at 0.129 µg/mL.
Same read-out and setting: as for B4, the figure is 0.0614 µg/mL; as for B5, 0.0843 µg/mL.
Same read-out and setting: to B6 belongs 0.0403 µg/mL.

Another assay concerns the target T1, human PD-1 extracellular domain fused …. Briefly: ELISA on coated PD1-hFc. The procedure:
as §1, §4
For the molecule B2, the EC50 (as a rule, the concentration that produces a half-maximal response) amounted to 0.0818 µg/mL.
Still for that read-out and setting: as for B3, the figure is 0.0946 µg/mL; as for B4, 0.0646 µg/mL.
The molecule B5 returned an EC50 of 0.0413 µg/mL. Against the preceding molecule, the EC50 is about 1.6-fold lower.
The same measure, in the same setting: as for B6, the figure is 0.0588 µg/mL.

Another assay addresses T3, human PD-1 on cells (293T cells …). As to the kind of experiment: FACS on hPD-1-293T cells. How it is done:
as §3, §4
B2 showed an EC50 of 0.244 µg/mL.
Consider B3, for which the EC50 was 0.221 µg/mL.
Same read-out and setting: as for B4, the figure is 0.103 µg/mL.
Still for that read-out and setting: as for B5, the figure is 0.145 µg/mL; as for B6, 0.219 µg/mL.
